Test results as given in patent publication US20150266963A1.

T1: human CD70 expressed on the surface of cells (human) (UniProt P32970)
T1 sequence (looked up): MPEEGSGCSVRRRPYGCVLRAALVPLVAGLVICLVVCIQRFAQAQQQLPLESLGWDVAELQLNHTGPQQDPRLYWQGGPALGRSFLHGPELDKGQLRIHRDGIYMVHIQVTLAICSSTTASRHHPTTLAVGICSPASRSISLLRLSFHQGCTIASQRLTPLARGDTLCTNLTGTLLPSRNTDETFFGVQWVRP

T2: recombinant human CD70 (Flag-TNC-CD70) (human) (UniProt P32970)
T2 sequence (looked up): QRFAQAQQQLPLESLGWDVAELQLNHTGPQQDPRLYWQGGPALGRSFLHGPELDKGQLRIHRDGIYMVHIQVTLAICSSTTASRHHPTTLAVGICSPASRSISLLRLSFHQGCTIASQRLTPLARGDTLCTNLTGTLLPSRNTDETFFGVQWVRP

T3: rhesus CD70 on LCL8664 cells (rhesus) (UniProt F7GPA5)
T3 sequence: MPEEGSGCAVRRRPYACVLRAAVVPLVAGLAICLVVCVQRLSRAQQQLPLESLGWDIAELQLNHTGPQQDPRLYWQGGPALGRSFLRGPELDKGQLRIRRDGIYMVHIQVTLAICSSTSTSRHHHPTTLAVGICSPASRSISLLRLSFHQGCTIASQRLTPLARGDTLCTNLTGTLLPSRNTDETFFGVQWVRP


Experiments:
[1] = biological target: T1, human CD70 expressed on the surface of cells (human); experiment: cell-based or functional assay
[2] = biological target: cynomolgus monkey Flag-TNC-CD70 (cynomolgus monkey); experiment: blocking ELISA; cynomolgus Flag-TNC-CD70; competitor CD27-Fc
[3] = biological target: T2, recombinant human CD70 (Flag-TNC-CD70) (human); experiment: inhibition ELISA; Flag-TNC-CD70 captured by anti-Flag mAb; competitor CD27-Fc
[4] = biological target: rhesus recombinant CD70 (FLAG-TNC-rhesus CD70) (rhesus); experiment: blocking ELISA; rhesus Flag-TNC-CD70; competitor CD27-Fc
[5] = biological target: T2, recombinant human CD70 (Flag-TNC-CD70) (human); experiment: blocking ELISA; human Flag-TNC-CD70; competitor CD27-Fc
[6] = biological target: T1, human CD70 expressed on the surface of cells (human); experiment: flow cytometry on U266 cells, goat anti human IgG1 FITC [panel U266]
[7] = biological target: T2, recombinant human CD70 (Flag-TNC-CD70) (human); experiment: blocking ELISA; Flag-TNC-CD70 captured by anti-FLAG M2; competitor CD27-Fc 6.5 nM
[8] = biological target: T1, human CD70 expressed on the surface of cells (human); experiment: flow cytometry on U266 cells, 1 h at 4 °C, anti-hIgG1-Fc-FITC or anti-hIgG-Fc-PE [panel U266]
[9] = biological target: T3, rhesus CD70 on LCL8664 cells (rhesus); experiment: flow cytometry on rhesus LCL8664 cells, goat anti human IgG1 FITC [panel Rhesus monkey]
[10] = biological target: T2, recombinant human CD70 (Flag-TNC-CD70) (human); experiment: Biacore; recombinant human CD70 on CM5 chip; Fab injected
[11] = biological target: T2, recombinant human CD70 (Flag-TNC-CD70) (human); experiment: Biacore; recombinant human CD70 on CM5 chip; Fab from papain digestion

Binder | IC50 (ng/ml), IL-8 secretion in Raji / HT1080-CD27 co-culture assay [1] | IC50 [2] | IC50 [3] | IC50 [4] | IC50 [5] | EC50 (read off the curve) [6] | IC50 [7] | EC50 (read off the curve) [8] | EC50 (read off the curve) [9] | koff [10] | koff [11]
SGN70 (antibody, INN chains, looked up, V domains shown) VH: QVQLVQSGAEVKKPGASVKVSCKASGYTFTNYGMNWVRQAPGQGLKWMGWINTYTGEPTYADAFKGRVTMTRDTSISTAYMELSRLRSDDTAVYYCARDYGDYGMDYWGQGTTVTVSS VL: DIVMTQSPDSLAVSLGERATINCRASKSVSTSGYSFMHWYQQKPGQPPKLLIYLASNLESGVPDRFSGSGSGTDFTLTISSLQAEDVAVYYCQHSREVPWTFGQGTKVEIK | 55 ng/mL | 0.112 µg/mL | 0.33 µg/mL | 0.178 µg/mL | 0.054 µg/mL | 0.08 µg/mL | 4.97 µg/mL | 0.08 µg/mL | 0.1 µg/mL | – | –
SGN70-Fab (Fab, INN chains, looked up, V domains shown, Fab) VH: QVQLVQSGAEVKKPGASVKVSCKASGYTFTNYGMNWVRQAPGQGLKWMGWINTYTGEPTYADAFKGRVTMTRDTSISTAYMELSRLRSDDTAVYYCARDYGDYGMDYWGQGTTVTVSS VL: DIVMTQSPDSLAVSLGERATINCRASKSVSTSGYSFMHWYQQKPGQPPKLLIYLASNLESGVPDRFSGSGSGTDFTLTISSLQAEDVAVYYCQHSREVPWTFGQGTKVEIK | – | – | – | – | – | – | – | – | – | 0.0007 s⁻¹ | 0.0007 s⁻¹
